From patent US20250326816A1 (KOREA UNIVERSITY RESEARCH AND BUSINESS FOUNDATION, published 2025)

T1: ICOS-L variant Y8 fused to antibody Fc domain (LALAPG) (human, UniProt O75144 19-256)
T1 construct: also called Y8-Fc; not shown: human IgG1 Fc with L234A/L235A/P329G C-terminal to ICOS-L
T1 chain: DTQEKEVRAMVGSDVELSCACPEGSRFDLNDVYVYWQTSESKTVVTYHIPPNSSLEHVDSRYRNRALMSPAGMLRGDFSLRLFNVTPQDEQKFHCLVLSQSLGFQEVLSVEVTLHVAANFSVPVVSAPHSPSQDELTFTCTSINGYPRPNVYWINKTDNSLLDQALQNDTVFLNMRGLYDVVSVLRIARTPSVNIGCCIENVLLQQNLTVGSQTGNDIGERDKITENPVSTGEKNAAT

T2: ATZ (L)-Y8_H57N: ICOS-L Y8_H57N variant fused to the light chain of Atezolizumab with LALAPG mutation in the … (Homo sapiens (Human), UniProt O75144 19-256)
T2 construct: Antibody-ligand fusion; ICOS-L at the C-terminal of the light chain; not shown: Atezolizumab light chain (VL plus constant region), atezolizumab heavy chain with LALAPG, and any linker
T2 sequence: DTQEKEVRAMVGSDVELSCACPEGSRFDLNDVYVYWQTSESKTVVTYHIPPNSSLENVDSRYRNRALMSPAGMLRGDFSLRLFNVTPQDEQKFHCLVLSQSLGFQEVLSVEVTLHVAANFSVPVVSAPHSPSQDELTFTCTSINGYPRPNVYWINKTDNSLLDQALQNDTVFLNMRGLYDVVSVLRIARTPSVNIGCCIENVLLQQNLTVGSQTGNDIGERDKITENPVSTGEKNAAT

T3: ATZ (H)-A184: ICOS-L A184 variant fused to the heavy chain of Atezolizumab with LALAPG mutation in the Fc … (Homo sapiens (Human), UniProt O75144 19-256)
T3 construct: Antibody-ligand fusion; ICOS-L at the C-terminal of the heavy chain; not shown: Atezolizumab heavy chain (VH plus IgG1 constant region with LALAPG), atezolizumab light chain, and any linker
T3 chain: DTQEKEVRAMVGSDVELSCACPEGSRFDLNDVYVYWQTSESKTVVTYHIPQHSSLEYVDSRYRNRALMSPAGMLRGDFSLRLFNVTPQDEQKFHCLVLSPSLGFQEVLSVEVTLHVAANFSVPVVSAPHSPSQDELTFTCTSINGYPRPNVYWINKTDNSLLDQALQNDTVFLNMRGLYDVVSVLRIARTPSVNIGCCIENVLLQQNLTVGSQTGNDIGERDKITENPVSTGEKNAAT

T4: wild-type ICOS-L (Homo sapiens (Human), UniProt O75144 19-256)
T4 construct: also called wild-type Inducible Co-Stimulator-ligand
T4 sequence: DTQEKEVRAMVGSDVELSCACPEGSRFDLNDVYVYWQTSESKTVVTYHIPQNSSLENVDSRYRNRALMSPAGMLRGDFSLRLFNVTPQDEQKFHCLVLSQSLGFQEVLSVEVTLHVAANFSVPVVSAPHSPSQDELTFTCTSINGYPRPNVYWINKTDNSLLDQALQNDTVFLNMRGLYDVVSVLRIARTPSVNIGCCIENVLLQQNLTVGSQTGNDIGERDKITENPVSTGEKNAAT

B1: ICOS-L variant Y8_P51Q (ligand)
chain: DTQEKEVRAMVGSDVELSCACPEGSRFDLNDVYVYWQTSESKTVVTYHIPQNSSLEHVDSRYRNRALMSPAGMLRGDFSLRLFNVTPQDEQKFHCLVLSQSLGFQEVLSVEVTLHVAANFSVPVVSAPHSPSQDELTFTCTSINGYPRPNVYWINKTDNSLLDQALQNDTVFLNMRGLYDVVSVLRIARTPSVNIGCCIENVLLQQNLTVGSQTGNDIGERDKITENPVSTGEKNAAT
notes: P51 of Y8 put back to Q; keeps N57H only
B2: ICOS-L variant Y8_H57N (ligand)
chain: DTQEKEVRAMVGSDVELSCACPEGSRFDLNDVYVYWQTSESKTVVTYHIPPNSSLENVDSRYRNRALMSPAGMLRGDFSLRLFNVTPQDEQKFHCLVLSQSLGFQEVLSVEVTLHVAANFSVPVVSAPHSPSQDELTFTCTSINGYPRPNVYWINKTDNSLLDQALQNDTVFLNMRGLYDVVSVLRIARTPSVNIGCCIENVLLQQNLTVGSQTGNDIGERDKITENPVSTGEKNAAT
notes: H57 of Y8 put back to N
B3: Dimeric human ICOS (ICOS-Fc) (Fc fusion, UniProt Q9Y6W8 21-140, looked up)
chain: EINGSANYEMFIFHNGGVQILCKYPDIVQQFKMQLLKGGQILCDLTKTKGSGNTVSIKSLKFCHSQLSNNSVSFFLYNLDHSHANYYFCNLSIFDPPPFKVTLTGGYLHIYESQLCCQLK
notes: range 21-140; Fc at the C-terminus of ICOS to induce dimerization; Labeled with Alexa488 when used as probe in the flow cytometry on yeast; also called ICOS-Fc dimer protein; ICOS dimer protein; not shown: GS linker of glycine and serine; Fc region (domain) of human IgG antibody

Columns and labels:
[1] = target: T1, ICOS-L variant Y8 fused to antibody Fc …; experiment: ELISA, ICOS-L-Fc coated at 4 ug/ml, His-tagged ICOS monomer titrated, anti-His-HRP
Procedure: (§1) After washing four times, 50 μl of an anti-His-HRP conjugate was added and reacted at room temperature for 1 hour, and then washed four times. Thereafter, 50 μl of a 1-Step Ultra TMB-ELISA substrate solution (Thermo Fisher Scientific, 34028) was added to develop color, and then added with 50 μl each of 2 M H₂SO₄ to terminate the reaction, and then analyzed using an Epoch microplate spectrophotometer (BioTek).

[2] = target: T2, ATZ (L)-Y8_H57N: ICOS-L Y8_H57N variant …; experiment: sandwich ELISA, PD-L1-Fc coated at 40 nM, atezolizumab fusion captured at 200 nM, His-tagged ICOS monomer titrated, anti-His-HRP
Procedure: (§2) Specifically, 50 μl of 40 nM PD-L1-Fc in 0.05 M Na₂CO₃ (pH 9.6) was dispensed into a Flat Bottom Polystyrene High Bind 96-well microplate (Costar), immobilized at 4° C. for 16 hours, and then blocked with 100 μl of PBS (pH 7.4) containing 0.5% bovine serum albumin (BSA) (Gibco) for 2 hours at room temperature. […] After washing four times, 50 μl of an anti-His-HRP conjugate was added and reacted at room temperature for 1 hour, and then washed four times. Thereafter, 50 μl of a 1-Step Ultra TMB-ELISA substrate solution (Thermo Fisher Scientific, 34028) was added to develop color, and then added with 50 μl each of 2 M H₂SO₄ to terminate the reaction, and then analyzed using an Epoch microplate spectrophotometer (BioTek).

[3] = target: T3, ATZ (H)-A184: ICOS-L A184 variant fused …; experiment: as above
Procedure: as §2

[4] = target: B3; experiment: bio-layer interferometry (Octet R8); fold gain of KD over wild-type ICOS-L as printed in the table
[5] = target: B3; experiment: ELISA, ICOS-Fc coated at 4 ug/ml, ICOS-L variant titrated, anti-His-HRP (x axis printed as PD-L1 CO…ON (nM))
Procedure: as §1

[6] = target: B3; experiment: bio-layer interferometry (Octet R8), ICOS-Fc captured on Protein A biosensor, ICOS-L variant in solution; the table prints no units
[7] = target: B3; experiment: ELISA, ICOS-Fc coated at 4 ug/ml, ICOS-L variant titrated, anti-His-HRP
Procedure: as §1

ICOS-L variant Y8_H57N = target: B2; experiment: bio-layer interferometry (Octet R8), ICOS-Fc captured on Protein A biosensor, ICOS-L variant in solution; the table prints no units
ICOS-L variant Y8_P51Q = target: B1; experiment: as above
wild-type ICOS-L = target: T4, wild-type ICOS-L; experiment: as above

| INCREASED MULTIPLE [4] | EC50 (read off the curve) [5] [nM] | Kd [6] [nM] | EC50 (read off the curve) [7] [nM] | Binder | further results |
| --- | --- | --- | --- | --- | --- |
| – | – | – | – | ICOS monomer protein (ICOS E21-H129) (receptor, human, UniProt Q9Y6W8 21-129, looked up, range 21-129; also called wild-type ICOS) EINGSANYEMFIFHNGGVQILCKYPDIVQQFKMQLLKGGQILCDLTKTKGSGNTVSIKSLKFCHSQLSNNSVSFFLYNLDHSHANYYFCNLSIFDPPPFKVTLTGGYLH | EC50 (read off the curve) [1]: ~4 nM; EC50 (read off the curve) [2]: ~9 nM; EC50 (read off the curve) [3]: ~5 nM |
| 4.89 | ~20 | 23.1 | – | A184 (ligand, Soluble form without Fc; the Fc and atezolizumab fusions are m12, m15 and m18; also called control A184) single chain: DTQEKEVRAMVGSDVELSCACPEGSRFDLNDVYVYWQTSESKTVVTYHIPQHSSLEYVDSRYRNRALMSPAGMLRGDFSLRLFNVTPQDEQKFHCLVLSPSLGFQEVLSVEVTLHVAANFSVPVVSAPHSPSQDELTFTCTSINGYPRPNVYWINKTDNSLLDQALQNDTVFLNMRGLYDVVSVLRIARTPSVNIGCCIENVLLQQNLTVGSQTGNDIGERDKITENPVSTGEKNAAT | – |
| 4.85 | – | – | – | B1 | – |
| 23.8 | – | – | ~10 | B2 | – |
| 95 | ~6 | 1.19 | ~4 | ICOS-L variant Y8 (ligand) DTQEKEVRAMVGSDVELSCACPEGSRFDLNDVYVYWQTSESKTVVTYHIPPNSSLEHVDSRYRNRALMSPAGMLRGDFSLRLFNVTPQDEQKFHCLVLSQSLGFQEVLSVEVTLHVAANFSVPVVSAPHSPSQDELTFTCTSINGYPRPNVYWINKTDNSLLDQALQNDTVFLNMRGLYDVVSVLRIARTPSVNIGCCIENVLLQQNLTVGSQTGNDIGERDKITENPVSTGEKNAAT | – |
| – | – | – | – | B3 | Kd (ICOS-L variant Y8_H57N): 4.75 nM; Kd (ICOS-L variant Y8_P51Q): 23.3 nM; Kd (wild-type ICOS-L): 113 nM |
